# Assay results taken from patent US20110165081A1 (published 2011).
# B1: PSMA 10.3 (antibody, V domains shown)
# VH: QEQLVESGGGVVQPGRSLRLSCAASGFTFSTYGMHWVRQAPGKGLEWVAVTWHDGSNKYYADSVKGRFTISRDNSKNTLYLQMNSLRAEDTAVYYCARGGVGATYYYYYGMDVWGQGTTVTVSS
# VL: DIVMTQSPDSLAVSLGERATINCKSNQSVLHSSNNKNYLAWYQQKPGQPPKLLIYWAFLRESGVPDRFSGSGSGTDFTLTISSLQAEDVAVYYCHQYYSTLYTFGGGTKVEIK
# Molecular target: T1, recombinant soluble PSMA (rsPSMA) (human, UniProt Q04609 44-750)
# T1 construct: Oligomeric state not specified for the assay; also called secreted rsPSMA; PSMAECTO
# Assay: Biacore SPR, mAb captured by anti-human IgG, rsPSMA in flow
# Method: It is ideal for screening crude supernatants.
# The entire sensor chip surface was conditioned with five injections of conditioning solution (1 M NaCl, 50 mM NaOH) and equilibrated with PBS buffer containing 0.005% polysorbate 20. Two to three thousand resonance units (RU) of biotinylated anti-human IgG antibody (Sigma) were immobilized onto the SA chip followed by an injection of regeneration buffer (glycine-HCl, pH 2.2). […] For each antibody at one concentration, the chip was regenerated and equilibrated.
# T1 sequence (Q04609 44-750): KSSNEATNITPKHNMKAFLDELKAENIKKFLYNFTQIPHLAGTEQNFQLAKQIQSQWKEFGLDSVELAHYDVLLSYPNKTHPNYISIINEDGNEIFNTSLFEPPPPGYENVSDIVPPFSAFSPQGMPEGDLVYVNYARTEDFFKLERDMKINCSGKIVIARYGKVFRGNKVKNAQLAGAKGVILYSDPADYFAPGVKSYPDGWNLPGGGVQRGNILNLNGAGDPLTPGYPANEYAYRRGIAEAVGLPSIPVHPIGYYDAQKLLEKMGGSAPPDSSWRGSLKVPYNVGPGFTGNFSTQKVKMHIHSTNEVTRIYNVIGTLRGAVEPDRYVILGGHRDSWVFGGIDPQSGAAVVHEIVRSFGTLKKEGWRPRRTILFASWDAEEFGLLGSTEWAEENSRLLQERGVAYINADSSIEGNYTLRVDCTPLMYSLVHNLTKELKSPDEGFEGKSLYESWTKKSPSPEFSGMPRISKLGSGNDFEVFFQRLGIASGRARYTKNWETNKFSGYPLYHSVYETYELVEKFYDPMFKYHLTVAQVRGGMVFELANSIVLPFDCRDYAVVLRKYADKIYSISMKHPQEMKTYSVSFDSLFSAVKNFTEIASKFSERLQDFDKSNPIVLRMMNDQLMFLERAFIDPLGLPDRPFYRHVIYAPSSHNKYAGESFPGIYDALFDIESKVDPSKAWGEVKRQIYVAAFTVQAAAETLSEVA
binder,measurement,value
B1,Kd,0.193 nM
